From paper PMC10604876, “Development of Anti-OSCAR Antibodies for the Treatment of Osteoarthritis” (Biomedicines, 2023)
One block for each binder: values may come before it.

What was measured:
[1] = target: T1, mouse OSCAR extracellular domains fused to human IgG1 Fc (Mus musculus (Mouse)., UniProt Q8VBT3); assay: ELISA; serial dilution ELISA of IgG-format antibodies against hOSCAR-Fc and mOSCAR-Fc; EC50; details: both partners purified
T1 construct: osteoclast-associated receptor (OSCAR), mouse, extracellular domains 'corresponding' to amino acids 19-233 of human OSCAR; also called mOSCAR-Fc; mOSCAR; source: FreeStyle 293F, transfected (pVITRO1), secreted, purified (Protein G-Sepharose)

[2] = target: T1, mouse OSCAR extracellular domains fused …; assay: BLI; Octet; IgG (5 ug/mL) captured on FAB2G sensor; 4.69-75 nM hOSCAR-Fc or mOSCAR-Fc (two-fold serial dilution) in PBST; 1:1 Langmuir model; details: both partners purified
[3] = target: T2, human OSCAR extracellular domains fused to human IgG1 Fc (human) (UniProt Q8IYS5); assay: ELISA; serial dilution ELISA of IgG-format antibodies against hOSCAR-Fc and mOSCAR-Fc; EC50
T2 sequence: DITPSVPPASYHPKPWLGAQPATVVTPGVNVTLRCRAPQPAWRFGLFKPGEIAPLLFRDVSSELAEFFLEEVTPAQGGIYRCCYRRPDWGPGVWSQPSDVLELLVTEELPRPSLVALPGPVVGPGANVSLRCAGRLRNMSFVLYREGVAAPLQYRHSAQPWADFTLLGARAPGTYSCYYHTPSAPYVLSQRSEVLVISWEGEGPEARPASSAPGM

[4] = target: T3, human OSCAR extracellular domains fused to human IgG1 Fc (Homo sapiens, UniProt Q8IYS5-2); assay: as above; details: both partners purified
T3 construct: osteoclast-associated receptor (OSCAR), human, extracellular domains, amino acids 19-233; also called hOSCAR-Fc; hOSCAR; source: FreeStyle 293F, transfected (pVITRO1), secreted, purified (Protein G-Sepharose)

[5] = target: T3, human OSCAR extracellular domains fused …; assay: BLI; Octet; IgG (5 ug/mL) captured on FAB2G sensor; 4.69-75 nM hOSCAR-Fc or mOSCAR-Fc (two-fold serial dilution) in PBST; 1:1 Langmuir model; details: both partners purified
[6] = target: T3, human OSCAR extracellular domains fused …; assay: ELISA; serial dilution ELISA of IgG-format antibodies against hOSCAR-Fc and mOSCAR-Fc; EC50; details: both partners purified; remark: listed apart in the source
[7] = target: anti-OSCAR antibody D11, human IgG1; assay: BLI; Octet; IgG (5 ug/mL) captured on FAB2G sensor; 4.69-75 nM hOSCAR-Fc or mOSCAR-Fc (two-fold serial dilution) in PBST; 1:1 Langmuir model

T1 sequence (Q8VBT3 19-231): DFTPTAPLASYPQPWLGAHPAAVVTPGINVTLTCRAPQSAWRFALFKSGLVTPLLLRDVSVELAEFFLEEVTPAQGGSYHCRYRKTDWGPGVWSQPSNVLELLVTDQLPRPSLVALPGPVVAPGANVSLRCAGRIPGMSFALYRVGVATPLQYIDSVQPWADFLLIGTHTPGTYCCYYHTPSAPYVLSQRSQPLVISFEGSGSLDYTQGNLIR

- EC50 [1]: 151 nM
- Kd [2]: 2.87 nM
- koff [2]: 0.000254 s⁻¹
- kon [2]: 91300 M⁻¹ s⁻¹
- EC50 [3]: > 1000 nM
B1: anti-OSCAR antibody D11, human IgG1 (antibody, V domains shown)
VH: EVQLLESGGGLVQPGGSLRLSCAASGFTFSDYYWTWVRQAPGKGLEWVSGSPVFGAANYAQNFQGRFTISRDNSKNTLYLQMNSLRAEDTAVYYCAKAGFTGGHFDIWGQGTLVTVSS
VL: QSVLTQPPSASGTPGQRVTISCSGSSSNIGNNYVSWYQQLPGTAPKLLIYGNSNRPSGVPNRFSGSKSGTSASLAISGLRSEDEADYYCQSYDSSSWLFGGGTKLTVL
notes: VH before CDR-H3 (clone from a synthetic human scFv library); rest of VH after CDR-H3 and the human IgG1 constant region; light chain of D11; IgG1; Only the CDR-H3 is printed; also called D11 (parent); D11 IgG; source: ExpiCHO, transfected (pcIW3.3), secreted, purified (Protein G)

- EC50 [4]: 36.8 nM
- EC50 [1]: 0.93 nM
- Kd [5]: 0.41 nM
- koff [5]: 4.15e-05 s⁻¹
- kon [5]: 101000 M⁻¹ s⁻¹
- Kd [2]: 0.22 nM
- koff [2]: 2.59e-05 s⁻¹
- kon [2]: 913000 M⁻¹ s⁻¹
- EC50 [6]: 0.93 nM
B2: anti-OSCAR antibody D11-B9, human IgG1 (affinity-matured variant of D11) (antibody, V domains shown)
VH: EVQLLESGGGLVQPGGSLRLSCAASGFTFSDYYWTWVRQAPGKGLEWVSGSPVFGAANYAQNFQGRFTISRDNSKNTLYLQMNSLRAEDTAVYYCAKAGIPGHFDIWGQGTLVTVSS
VL: B1 VL
notes: VH before CDR-H3, as the heavy chain of m3; rest of VH after CDR-H3 and the human IgG1 constant region, as the heavy chain of m3; as the light chain of m3 (only CDR-H3 was randomized); IgG1; Only the CDR-H3 is printed; From NNK randomization of residues H98-99 (Kabat); CDR-H3 is one residue shorter than the parent's; also called D11-4-B9; source: ExpiCHO, transfected (pcIW3.3), secreted, purified …

- Kd [7]: 5.61 nM
- koff [7]: 0.000512 s⁻¹
- kon [7]: 91300 M⁻¹ s⁻¹
B3: human OSCAR extracellular domains fused to human IgG1 Fc (Fc fusion)
chain: T2 sequence
